Laboratory results from the supplement of paper PMC7877785.
± gives the uncertainty stated by the source.

Assay: self-splicing fitness, log relative to wild type (ln ratio); higher = more splicing; Tetrahymena group I intron in knt gene, E. coli kanamycin selection, DiMSum; sequences stand for … in CUCUCU…GGAGGGAAAAGUUAUCAGGCAUGCACCUGGUAGCUAGUCUUUAAACCAAUAGAUUGCAUCGGUUUAAAAGGCAAGACCGUCAAAUUGCGGGAAAGGGGUCAACAGCCGUUCAGUACCAAGUCUCAGGGGAAACUUUGAGAUGGCCUUGCAAAGGGUAUGGUAAUAAGCUGACGGACAUGGUCCUAACCACGCAGCCAAGUCCUAAGUCAACAGAUCUUCUGUUGAUAUGGAUGCAGUUCACAGACUAAAUGUCGGUCGGGGAAGAUGUAUUCUUCUCAUAAGAUAUAGUCGGACCUCUCCUUAAUGGGAGCUAGCGGAUGAAGUGAUGCAACACUGGAGCCGCUGGGAACUAAUUUGUAUGCGAAAGUAUAUUGAUUAGUUUUGGAGUACUCGUGGUCG
Procedure, shortened: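 Pooled colonies went to amplicon sequencing on an Illumina HiSeq 2500 after six replicate transformations. The plates were LB agar with 100 μg/mL carbenicillin, 50 μM IPTG and 0.2% rhamnose, with or without 25 μg/mL kanamycin, incubated overnight at 37°C or 30°C. The E. coli BL21(DE3) library had all eight P1ex-region intron nucleotides randomised, the intron placed in the knt kanamycin-resistance gene on pET-22b(+). DiMSum fitness is the error-weighted combination of replicate fold changes, kanamycin against none, normalised to wild type.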

Sequence	self-splicing fitness (ln) (30 °C)	self-splicing fitness (ln) (37 °C)
GGUUAGCAAUAUUACGAUUC	-0.602 ± 0.11	-0.718 ± 0.17
CCAGAGCAAUAUUACGAGCU	-3.54 ± 0.34	-2.35 ± 0.45
AAUCAGCAAUAUUACGCUGC	-3.58 ± 0.26	-2.36 ± 0.19
CCCAAGCAAUAUUACGGAAG	-2.89 ± 0.16	-1.48 ± 0.15
UUCGAGCAAUAUUACGACCU	-1.7 ± 0.43	1.25 ± 0.38
UUACAGCAAUAUUACGAGUA	-1.5 ± 0.14	-0.933 ± 0.11
UACGAGCAAUAUUACGUUCC	-2.83 ± 0.36	
GCCCAGCAAUAUUACGGCAU	-3.47 ± 0.13	-1.01 ± 0.1
UGCAAGCAAUAUUACGUGAU	-3.33 ± 0.082	-2.13 ± 0.093
GGUAAGCAAUAUUACGGAGG		-3.58 ± 0.42
CCGGAGCAAUAUUACGCCCA	-3.21 ± 0.32	-2.06 ± 0.43
UCUGAGCAAUAUUACGCUCU	-2.96 ± 0.46	
AUUCAGCAAUAUUACGGGUC	-4.41 ± 0.46	-2.94 ± 0.24
UCAGAGCAAUAUUACGUAUG	-2.12 ± 0.23	-2.37 ± 0.31
CUACAGCAAUAUUACGUGAU	-2.01 ± 0.063	-1.18 ± 0.085
GACAAGCAAUAUUACGGUCA	-0.777 ± 0.13	-0.735 ± 0.12
GCUCAGCAAUAUUACGUCCG	-1.49 ± 0.14	-1.13 ± 0.18
CGCCAGCAAUAUUACGCAUA	-3.34 ± 0.24	-1.86 ± 0.2
GUCGAGCAAUAUUACGAUAG	-4.14 ± 0.47	
GGGAAGCAAUAUUACGGUGU	-2.2 ± 0.1	-0.483 ± 0.13
CAAGAGCAAUAUUACGCUUA	-2.23 ± 0.17	-0.92 ± 0.15
GACUAGCAAUAUUACGAUGU	-2.24 ± 0.15	-1.53 ± 0.17
GUCUAGCAAUAUUACGAGUC	-1.93 ± 0.11	-1.88 ± 0.093
GAAUAGCAAUAUUACGUCCA	-1.28 ± 0.1	-0.00949 ± 0.13
UUAGAGCAAUAUUACGGGCU	-2.53 ± 0.32	

Sequence	self-splicing fitness (ln) (30 °C)	self-splicing fitness (ln) (37 °C)
CGUAAGCAAUAUUACGUAGU	-3.74 ± 0.27	-1.48 ± 0.18
UUCAAGCAAUAUUACGUGUC	-2.84 ± 0.11	-2.45 ± 0.14
AGUCAGCAAUAUUACGGGCA	-0.79 ± 0.095	-0.281 ± 0.11
UCAUAGCAAUAUUACGAUCG	-0.885 ± 0.09	-0.426 ± 0.12
UAUCAGCAAUAUUACGACUC	-0.81 ± 0.11	-0.283 ± 0.12
CAGUAGCAAUAUUACGUUGC	-3.47 ± 0.34	
GACCAGCAAUAUUACGAACU	0.271 ± 0.062	-0.0101 ± 0.082
AAUUAGCAAUAUUACGUCGA	-1.22 ± 0.14	-0.488 ± 0.15
GCUAAGCAAUAUUACGUGUG	-1.22 ± 0.079	-0.636 ± 0.098
AACAAGCAAUAUUACGGGGC		-2.18 ± 0.23
AAUCAGCAAUAUUACGUAGC	-1.93 ± 0.093	-0.229 ± 0.12
AUCAAGCAAUAUUACGGUUU	-1.29 ± 0.073	-0.35 ± 0.075
ACCUAGCAAUAUUACGCCUC	-1.88 ± 0.13	-1.51 ± 0.15
ACGAAGCAAUAUUACGCUAG	-1.5 ± 0.084	-0.372 ± 0.11
CUACAGCAAUAUUACGAUAC	-3.74 ± 0.19	-2.58 ± 0.18
GGAAAGCAAUAUUACGGAUC	-0.0161 ± 0.075	0.0803 ± 0.09
GGACAGCAAUAUUACGUCCU	-4.07 ± 0.22	-2.66 ± 0.33
CAGUAGCAAUAUUACGGACU	-2.38 ± 0.16	-0.698 ± 0.12
GAAGAGCAAUAUUACGAAAC	-2.57 ± 0.27	-1.38 ± 0.39
CCCGAGCAAUAUUACGCGCU	-3.45 ± 0.25	-2.91 ± 0.29
GUCGAGCAAUAUUACGGAGC	-2.93 ± 0.2	-1.24 ± 0.15
GCCAAGCAAUAUUACGAUUU	-2.95 ± 0.096	-1.15 ± 0.09
CGUUAGCAAUAUUACGUGGU	-4.09 ± 0.26	-2.6 ± 0.28
UUCUAGCAAUAUUACGCUGU	-2.17 ± 0.17	-1.63 ± 0.2
GGAAAGCAAUAUUACGGUCC	-2.06 ± 0.25	
